Assay results: publication PMC7013354

Tests used:
[1] = target: truncated E2 protein of CSFV C-strain with glutathione S-transferase tag (grE2) (classical swine fever virus, C-strain); test: SPR
[2] = target: truncated E2 protein of CSFV C-strain with glutathione S-transferase tag (grE2) (classical swine fever virus, C-strain); test: ELISA

B1: recombinant sdAbE2-2 (VHH)
VHH: DVQLVESGGGLVQAGGSLRLSCTASGFTFDDYAMAWFRQPPGKEREGVSCISSSGGSTWYADSVKGRFTVSRDNAKNTLYLQMNSLKPEDTAMYYCAADWGRLCVVRGPRNEYKYSGQGTQVTVSS
Kd [1]: 13.5 nM | koff [1]: 0.00859 s⁻¹ | kon [1]: 635000 M⁻¹ s⁻¹ | OD450nm value [2]: 0.743

B2: recombinant sdAbE2-1 (VHH)
VHH: QVQLLESGGGLVQPGGSLRLSCAASGYSFIDKTMAWVRQAPGKGLEWVSAIRMHNGSTYYADSVKGRFTISRDNSKNTLYLQMNSLRAEDTAVYYCARLSRRIQAKDKAKLKYWGQGTLVTVSS
Kd [1]: 334 nM | koff [1]: 0.00791 s⁻¹ | kon [1]: 23700 M⁻¹ s⁻¹ | OD450nm value [2]: 0.765
